Km and kcat data for one protein are collected here from publication PMC4735289, “Seasonal induction of alternative principal pathway for rose flower scent” (Scientific Reports, 2016).

Substrate in series [1]: O=C(O)C(=O)Cc1ccccc1
As to the kind of experiment: PPA decarboxylation; phenylacetaldehyde extracted and measured by GC-MS. It counts as biochemical, Rosa hybrid cultivar. The note with it: 1 mM TPP, 5 mM MgCl2, 0.1 M citrate pH 6.0, 40 °C. The text has this:
PPA decarboxylation; phenylacetaldehyde extracted and measured by GC-MS on […] | the kcat/Km value of […] was higher for PPA than for pyruvic acid (PA)

Substrate in the series “purified protein”: CC(=O)C(=O)O
As to the kind of experiment: purified protein. The note with it: 1 mM TPP, 5 mM MgCl2, 0.1 M citrate pH 6.0, 40 °C. It is filed as biochemical, Rosa hybrid cultivar.

B1: RyPPDC (Rosa hybrid cultivar) (protein)
chain: MEPSTLIGATPRPTSALLPVVPAAACSGTLGRHLARRLVEIGVHDVFSVPGDFNLTLLDHLIAEPELNLIGCCNELNAGYAADGYARARGVGACVVTFTVGGLSVLNAIAGAYSENLPVICIVGGPNSNDYGTNRILHHTIGLPDFTQELRCFQTVTCHQAVVSHLEDAHELIDTAISTALKESKPVYISISCNLPAIPHPTFGRDPVPFFIAPKVSNQIGLEAAVEATAAFLNKAVKPVLVGGPKLRVAKAQKAFVELADASGYPMAVMPSGKGLVPEHHPHFIGTYWGAVSTSFCGEIVESADAYVFVGPIFNDYSSVGYSLLIKKEKAIIVEPNRVTIGNGPSFGWVFMGDFLTALAKKLKKNSTGMENYCRIFVPPGIPLKAQKDEPLRVNVLFKHIQEIVTPNTAIISETGDSWFNCQKLRLPENCGYEFQMQYGSIGWSVGATLGYAQGAKDKRVIACIGDGSFQVTAQDISTMIRCGQNTIIFLINNGGYTIEVEIHDGPYNVIKNWDYTGLVDAIHNGEGKCWTTKVRTEEDLTEAIAKATGEHKDSLCFIEVFVHKDDTRKELLEWGSRVSAANSRPPNPQ
notes: recombinant, baculovirus-insect cell (HighFive) expression, purified by DEAE, Phenyl HP and Superdex 200; cDNA from rose petals
With B1, in series [1], the Michaelis constant (Km) is listed as 1.32 ± 0.06 mM and the kcat amounted to 0.0297 ± 0.00033 s⁻¹. In the series “purified protein”, the Km amounted to 4.70 ± 0.32 mM and the kcat came to 0.0215 ± 0.0005 s⁻¹.
